From publication PMC11176775, “Impact of DNA ligase 1 and IIIα interactions with APE1 and polβ on the efficiency of base excision repair pathway at the downstream steps”

T1: DNA ligase IIIα (LIGIIIα) (UniProt P49916-3 1-922)
T1 sequence: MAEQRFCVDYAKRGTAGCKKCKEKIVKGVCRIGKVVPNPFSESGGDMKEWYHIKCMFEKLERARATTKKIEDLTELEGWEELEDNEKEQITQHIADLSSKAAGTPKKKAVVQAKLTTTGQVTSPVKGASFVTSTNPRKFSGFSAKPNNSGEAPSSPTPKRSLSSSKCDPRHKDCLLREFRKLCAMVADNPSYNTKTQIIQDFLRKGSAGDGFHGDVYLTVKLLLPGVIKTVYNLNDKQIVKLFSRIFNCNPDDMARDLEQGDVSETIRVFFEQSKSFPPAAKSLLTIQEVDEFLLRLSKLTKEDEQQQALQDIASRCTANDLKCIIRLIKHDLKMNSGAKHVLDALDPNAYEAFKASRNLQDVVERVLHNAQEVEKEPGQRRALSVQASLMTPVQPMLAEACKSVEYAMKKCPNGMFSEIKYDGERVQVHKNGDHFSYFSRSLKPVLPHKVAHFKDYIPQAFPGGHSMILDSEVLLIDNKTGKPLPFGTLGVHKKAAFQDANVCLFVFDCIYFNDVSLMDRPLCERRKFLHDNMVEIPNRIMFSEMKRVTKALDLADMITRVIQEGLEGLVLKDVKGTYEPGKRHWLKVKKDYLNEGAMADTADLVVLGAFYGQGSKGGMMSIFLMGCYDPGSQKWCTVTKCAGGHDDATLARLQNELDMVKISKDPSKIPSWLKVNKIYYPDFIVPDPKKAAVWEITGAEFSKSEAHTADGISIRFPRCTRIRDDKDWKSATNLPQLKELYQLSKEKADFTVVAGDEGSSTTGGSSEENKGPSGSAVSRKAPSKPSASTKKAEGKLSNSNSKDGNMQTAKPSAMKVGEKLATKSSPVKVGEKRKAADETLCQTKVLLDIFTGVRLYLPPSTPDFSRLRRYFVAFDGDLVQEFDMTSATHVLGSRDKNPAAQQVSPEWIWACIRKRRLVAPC


Key:
[1] = target: apurinic/apyrimidinic endonuclease 1 (APE1) (UniProt P27695 1-318); assay: BLI; BLI (Octet QKe), 20 °C: polβ, APE1, LIGIIIα in 20 mM Hepes pH 7.4, 200 mM NaCl, 0.5% BSA, 0.05% Tween 20; LIG1 in 50 mM Tris-HCl pH 7.5, 100 mM KCl, 1 mM DTT; no Mg2+ listed; settings: protein: recombinant, tags: His, strands 1 and 2 pair with strand 3, blunt outer ends
[2] = target: T2, DNA ligase 1 (LIG1) (UniProt P18858 1-919); assay: BLI; range given jointly for polβ, LIG1 and LIGIIIα; LIG1 buffer; BLI (Octet QKe), 20 °C: polβ, APE1, LIGIIIα in 20 mM Hepes pH 7.4, 200 mM NaCl, 0.5% BSA, 0.05% Tween 20; LIG1 in 50 mM Tris-HCl pH 7.5, 100 mM KCl, 1 mM DTT; no Mg2+ listed; settings: protein: recombinant; tags: His; label: 3'-biotin on S2; 1-nt gap opposite template C; strands 1 and 2 pair with strand 3; blunt outer ends
[3] = target: T3, DNA polymerase beta (polβ) (UniProt P06746 1-335); assay: BLI; range given jointly for polβ, LIG1 and LIGIIIα; individual value only in figure; BLI (Octet QKe), 20 °C: polβ, APE1, LIGIIIα in 20 mM Hepes pH 7.4, 200 mM NaCl, 0.5% BSA, 0.05% Tween 20; LIG1 in 50 mM Tris-HCl pH 7.5, 100 mM KCl, 1 mM DTT; n
[4] = target: T1, DNA ligase IIIα (LIGIIIα); assay: BLI; range given jointly for polβ, LIG1 and LIGIIIα; individual value only in figure; BLI (Octet QKe), 20 °C: polβ, APE1, LIGIIIα in 20 mM Hepes pH 7.4, 200 mM NaCl, 0.5% BSA, 0.05% Tween 20; LIG1 in 50 mM Tris-HCl pH 7.5, 100 mM KCl, 1 mM DTT; no Mg2+ listed; settings: protein: recombinant; tags: His; label: 3'-biotin on S2; 1-nt gap opposite template C; strands 1 and 2 pair with strand 3; blunt outer ends
[5] = target: T3, DNA polymerase beta (polβ); assay: BLI; BLI (Octet QKe), 20 °C: polβ, APE1, LIGIIIα in 20 mM Hepes pH 7.4, 200 mM NaCl, 0.5% BSA, 0.05% Tween 20; LIG1 in 50 mM Tris-HCl pH 7.5, 100 mM KCl, 1 mM DTT; n
[6] = target: T1, DNA ligase IIIα (LIGIIIα); assay: BLI; BLI (Octet QKe), 20 °C: polβ, APE1, LIGIIIα in 20 mM Hepes pH 7.4, 200 mM NaCl, 0.5% BSA, 0.05% Tween 20; LIG1 in 50 mM Tris-HCl pH 7.5, 100 mM KCl, 1 mM DTT; no Mg2+ listed; settings: protein: recombinant; tags: His; label: 3'-biotin on strand 2; nicked duplex; strands 1 and 2 pair with strand 3; blunt outer ends
[7] = target: T2, DNA ligase 1 (LIG1); assay: BLI; LIG1 buffer; BLI (Octet QKe), 20 °C: polβ, APE1, LIGIIIα in 20 mM Hepes pH 7.4, 200 mM NaCl, 0.5% BSA, 0.05% Tween 20; LIG1 in 50 mM Tris-HCl pH 7.5, 100 mM KCl, 1 mM DTT; no Mg2+ listed; settings: protein: recombinant; tags: His; label: 3'-biotin on strand 2; nicked duplex; strands 1 and 2 pair with strand 3; blunt outer ends

Row | Binder | Kd ([1]; label: 3'-biotin on S2, 1-nt gap opposite template C) [nM] | Kd [2] [nM] | Kd [3] [nM] | Kd [4] [nM] | Kd [5] [nM] | Kd ([1]; label: 3'-biotin on strand 2, nicked duplex) [nM] | Kd [6] [nM] | Kd [7] [nM]
1 | one-nucleotide gap DNA (template C) (dsDNA, 5'-phosphate on S2 at the gap; 3'-OH on S1) DNA 1: CATGGGCGGCATGAACC DNA 2: GAGGCCCATCCTCACC DNA 3: GGTGAGGATGGGCCTCCGGTTCATGCCGCCCATG | 70 | ~4.9 | ~4.9 | ~4.9 | – | – | – | –
2 | nick DNA (3'-dG:C) (dsDNA, 5'-phosphate on strand 2 at the nick; 3'-OH on strand 1) DNA 1: CATGGGCGGCATGAACCG DNA 2: GAGGCCCATCCTCACC DNA 3: GGTGAGGATGGGCCTCCGGTTCATGCCGCCCATG | – | – | – | – | ~20 | 200 | ~7 | 3
